Earlier results on one substance are cited in paper PMC10410519.

This data set has as its target Growth hormone receptor (Homo sapiens) (UniProt P10912). Nature of the data set: competition.

As for hGH (from UniProt P01241), the inhibition constant Ki (as a rule, a dissociation constant, usually derived from enzyme kinetics or from competition with a known ligand) is 3.5 nM.
